Measured values taken from PMC9482650, “Quantitative fragmentomics allow affinity mapping of interactomes” (Nature Communications, 2022).

Key:
Assay in all cases: holdup assay
Design in all cases: key: below the threshold = too weak to quantify, mostly under pKd 3.1 to 4
Details in all cases: plain residues with an end cap or a label only (N-terminal biotin on a linker: ttds)
[1] = molecular target: AHNAK2, Q8IVF2
[2] = molecular target: T1, DVL1, O14640
T1 sequence (O14640 246-333, limits assumed, looked up): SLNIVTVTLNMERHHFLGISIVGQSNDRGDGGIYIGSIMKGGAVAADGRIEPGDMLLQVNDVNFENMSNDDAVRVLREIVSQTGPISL

[3] = molecular target: GIPC3, Q8TF64
GIPC3, Q8TF64, sequence (Q8TF64 107-202): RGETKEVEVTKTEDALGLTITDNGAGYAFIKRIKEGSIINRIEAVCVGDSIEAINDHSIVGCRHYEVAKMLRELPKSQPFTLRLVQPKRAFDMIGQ

[4] = molecular target: IL16_2, Q14005
IL16_2, Q14005, sequence (Q14005 350-450): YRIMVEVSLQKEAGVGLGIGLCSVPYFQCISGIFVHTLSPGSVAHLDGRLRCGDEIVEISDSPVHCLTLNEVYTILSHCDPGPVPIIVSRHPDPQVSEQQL

[5] = molecular target: Inadl_7, Q8NI35
Inadl_7, Q8NI35, sequence (Q8NI35 1219-1332): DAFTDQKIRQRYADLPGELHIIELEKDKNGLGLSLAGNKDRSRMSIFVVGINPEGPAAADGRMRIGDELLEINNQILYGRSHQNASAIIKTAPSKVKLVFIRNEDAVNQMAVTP

[6] = molecular target: MAGI1_4, Q96QZ7
MAGI1_4, Q96QZ7, sequence (Q96QZ7 other isoform, or with tags, fused parts or gaps): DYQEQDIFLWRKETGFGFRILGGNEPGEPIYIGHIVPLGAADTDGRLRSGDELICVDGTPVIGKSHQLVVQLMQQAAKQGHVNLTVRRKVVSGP

[7] = molecular target: T2, MPDZ_11, O75970
T2 sequence (O75970 1720-1817, limits assumed, looked up): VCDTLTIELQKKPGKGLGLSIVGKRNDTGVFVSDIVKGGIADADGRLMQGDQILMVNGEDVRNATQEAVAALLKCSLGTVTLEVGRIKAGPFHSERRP

[8] = molecular target: T3, MPDZ_2, O75970
T3 sequence (O75970 252-347, limits assumed, looked up): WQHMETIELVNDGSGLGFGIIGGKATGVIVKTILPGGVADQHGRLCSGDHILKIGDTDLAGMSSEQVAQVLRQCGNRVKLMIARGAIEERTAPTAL

[9] = molecular target: T4, MPP5, Q8N3R9
T4 sequence (Q8N3R9 251-346, limits assumed, looked up): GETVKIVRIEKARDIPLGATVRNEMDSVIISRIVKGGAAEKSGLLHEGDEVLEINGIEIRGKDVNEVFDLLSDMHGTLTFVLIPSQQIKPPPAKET

[10] = molecular target: T5, NHERF1_1, O14745
T5 sequence (O14745 9-104, limits assumed, looked up): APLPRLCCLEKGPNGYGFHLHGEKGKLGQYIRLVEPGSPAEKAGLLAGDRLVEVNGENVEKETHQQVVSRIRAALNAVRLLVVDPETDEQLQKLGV

[11] = molecular target: PARD3B_2, Q8TEW8
PARD3B_2, Q8TEW8, sequence (Q8TEW8 376-471): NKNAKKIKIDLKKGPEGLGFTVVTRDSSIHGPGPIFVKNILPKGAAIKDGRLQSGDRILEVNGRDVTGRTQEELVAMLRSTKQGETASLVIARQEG

[12] = molecular target: PARD3B_3, Q8TEW8
PARD3B_3, Q8TEW8, sequence (Q8TEW8 490-594): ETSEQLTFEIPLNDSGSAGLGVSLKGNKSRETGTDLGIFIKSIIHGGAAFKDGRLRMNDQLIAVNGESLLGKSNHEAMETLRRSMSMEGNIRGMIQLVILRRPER

[13] = molecular target: PARD3_1, Q8TEW0
PARD3_1, Q8TEW0, sequence (Q8TEW0 264-372): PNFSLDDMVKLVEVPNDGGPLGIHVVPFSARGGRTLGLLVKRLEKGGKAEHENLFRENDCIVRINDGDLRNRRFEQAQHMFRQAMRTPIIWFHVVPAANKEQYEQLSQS

[14] = molecular target: T6, PDZD2_4, O15018
T6 sequence (O15018 723-823, limits assumed, looked up): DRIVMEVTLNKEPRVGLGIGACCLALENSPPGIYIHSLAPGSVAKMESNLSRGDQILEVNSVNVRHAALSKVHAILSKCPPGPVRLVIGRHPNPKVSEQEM

[15] = molecular target: T7, PDZD2_6, O15018
T7 sequence (O15018 2745-2839, limits assumed, looked up): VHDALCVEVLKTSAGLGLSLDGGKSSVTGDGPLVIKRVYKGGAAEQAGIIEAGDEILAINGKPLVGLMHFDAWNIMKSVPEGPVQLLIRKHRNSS

[16] = molecular target: T8, PREX2_2, Q70Z35
T8 sequence (Q70Z35 672-764, limits assumed, looked up): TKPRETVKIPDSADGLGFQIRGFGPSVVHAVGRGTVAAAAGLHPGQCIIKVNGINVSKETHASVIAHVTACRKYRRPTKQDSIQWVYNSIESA

[17] = molecular target: T9, PTPN13_5, Q12923
T9 sequence (Q12923 1877-1975, limits assumed, looked up): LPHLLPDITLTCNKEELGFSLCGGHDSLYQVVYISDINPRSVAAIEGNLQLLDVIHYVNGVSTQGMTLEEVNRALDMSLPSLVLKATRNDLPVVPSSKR

[18] = molecular target: T10, RGS12, O14924
T10 sequence (O14924 17-108, limits assumed, looked up): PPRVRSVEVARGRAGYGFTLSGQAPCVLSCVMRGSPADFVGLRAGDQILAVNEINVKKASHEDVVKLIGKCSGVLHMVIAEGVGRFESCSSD

[19] = molecular target: RIMS2, Q9UQ26
RIMS2, Q9UQ26, sequence (Q9UQ26 637-758): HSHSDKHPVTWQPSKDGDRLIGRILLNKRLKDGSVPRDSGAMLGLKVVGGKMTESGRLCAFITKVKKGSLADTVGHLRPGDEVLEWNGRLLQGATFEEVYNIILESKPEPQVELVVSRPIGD

[20] = molecular target: T11, SHANK2, Q9UPX8
T11 sequence (Q9UPX8 621-730, limits assumed, looked up): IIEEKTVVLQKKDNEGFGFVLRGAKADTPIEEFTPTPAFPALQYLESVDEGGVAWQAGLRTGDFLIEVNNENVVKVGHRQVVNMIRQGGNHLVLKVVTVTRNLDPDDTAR

[21] = molecular target: T12, SHROOM2, Q13796
T12 sequence (Q13796 21-118, limits assumed, looked up): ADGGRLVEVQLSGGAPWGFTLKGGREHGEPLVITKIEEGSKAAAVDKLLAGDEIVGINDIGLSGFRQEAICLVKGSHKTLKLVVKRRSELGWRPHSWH

[22] = molecular target: T13, SIPA1L3, O60292
T13 sequence (O60292 961-1052, limits assumed, looked up): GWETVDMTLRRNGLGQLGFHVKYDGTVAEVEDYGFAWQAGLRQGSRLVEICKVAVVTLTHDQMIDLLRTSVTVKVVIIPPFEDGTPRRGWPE

[23] = molecular target: T14, USH1C_2, Q9Y6N9
T14 sequence (Q9Y6N9 206-303, limits assumed, looked up): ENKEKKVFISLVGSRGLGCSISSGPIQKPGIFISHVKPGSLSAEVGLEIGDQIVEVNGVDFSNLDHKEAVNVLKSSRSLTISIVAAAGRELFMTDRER

AHNAK2, Q8IVF2, sequence (Q8IVF2 108-193): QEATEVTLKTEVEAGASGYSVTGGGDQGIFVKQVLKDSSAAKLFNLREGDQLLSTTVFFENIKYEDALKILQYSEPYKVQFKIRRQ

pKd [1]: below the threshold
pKd [2]: below the threshold
pKd [3]: below the threshold
pKd [4]: below the threshold
pKd [5]: 4.36
pKd [6]: below the threshold
pKd [7]: below the threshold
pKd [8]: below the threshold
pKd [9]: below the threshold
pKd [10]: below the threshold
pKd [11]: 3.74
pKd [12]: below the threshold
pKd [13]: below the threshold
pKd [14]: below the threshold
pKd [15]: below the threshold
pKd [16]: below the threshold
pKd [17]: below the threshold
pKd [18]: below the threshold
pKd [19]: below the threshold
pKd [20]: below the threshold
pKd [21]: below the threshold
pKd [22]: below the threshold
pKd [23]: below the threshold
Binder: PSRDRKETSI [RALBP1, Q15311]
